Test results reported in patent US20250223358A1 (ANTENGENE BIOLOGICS, published 2025).
Like-named read-outs stand apart in the source and are kept apart here.

Experiments:
cynomolgus CD3 = target: T1, cynomolgus CD3 (cynomolgus (Macaca fascicularis), UniProt Q95LI5 22-198; Q95LI8 22-171; Q95LI7 23-181); test: FACS on 293F-cynoCD3mix cells; also: test concentration or dose not given here
T1 construct: whole, on cells; composition of the 'mix' not defined; also called cynoCD3

human CD3 [1] = target: T2, human CD3 (human, UniProt P07766 23-207; P04234 22-171; P09693 23-182); test: FACS on Jurkat cells; as to FACS MFI: test concentration or dose not given here
T2 construct: whole, on cells; also called hCD3; CD3 on Jurkat cells
T2 sequence (P07766 23-207, chain 1 of 3): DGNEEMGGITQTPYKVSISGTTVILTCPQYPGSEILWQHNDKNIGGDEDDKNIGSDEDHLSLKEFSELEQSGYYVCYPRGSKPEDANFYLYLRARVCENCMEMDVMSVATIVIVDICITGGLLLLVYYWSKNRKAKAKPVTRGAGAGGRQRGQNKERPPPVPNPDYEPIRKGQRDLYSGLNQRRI
T2 sequence (P04234 22-171, chain 2 of 3): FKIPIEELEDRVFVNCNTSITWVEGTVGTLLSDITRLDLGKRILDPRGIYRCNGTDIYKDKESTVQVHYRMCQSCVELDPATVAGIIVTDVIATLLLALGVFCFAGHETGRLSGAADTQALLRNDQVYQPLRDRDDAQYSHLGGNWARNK
T2 sequence (P09693 23-182, chain 3 of 3): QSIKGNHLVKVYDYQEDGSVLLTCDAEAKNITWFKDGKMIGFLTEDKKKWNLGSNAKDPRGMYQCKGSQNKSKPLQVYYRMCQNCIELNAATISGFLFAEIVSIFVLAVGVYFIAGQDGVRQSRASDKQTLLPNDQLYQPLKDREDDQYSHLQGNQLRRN

human CD3 [2] = target: T2, human CD3; test: FACS on Jurkat cells; remark: listed apart in the source; as to FACS MFI: test concentration or dose not given here
human CD3 [3] = target: T2, human CD3; test: cell-based or functional assay
human CD3 [4] = target: T2, human CD3; test: cell-based or functional assay; remark: listed apart in the source
human CD3 [5] = target: T2, human CD3; test: cell-based or functional assay; remark: listed apart in the source
human CD3 [6] = target: T2, human CD3; test: FACS on Jurkat cells; remark: listed apart in the source; as to FACS MFI: test concentration or dose not given here
human CD3 [7] = target: T2, human CD3; test: FACS on Jurkat cells; remark: listed apart in the source; as to FACS MFI: test concentration or dose not given here

T1 sequence (Q95LI5 22-198, chain 1 of 3): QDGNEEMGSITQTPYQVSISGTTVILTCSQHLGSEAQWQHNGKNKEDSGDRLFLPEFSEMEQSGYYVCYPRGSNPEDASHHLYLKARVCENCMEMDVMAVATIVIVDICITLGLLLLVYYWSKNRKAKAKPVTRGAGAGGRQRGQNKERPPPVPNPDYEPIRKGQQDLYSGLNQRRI
T1 sequence (Q95LI8 22-171, chain 2 of 3): as the sequence (P04234 22-171, chain 2 of 3) above, with I5V, N15K, I20V, S32T, D33N, I34N, T64A, S74N, V83L, H141R counted along it
T1 sequence (Q95LI7 23-181, chain 3 of 3): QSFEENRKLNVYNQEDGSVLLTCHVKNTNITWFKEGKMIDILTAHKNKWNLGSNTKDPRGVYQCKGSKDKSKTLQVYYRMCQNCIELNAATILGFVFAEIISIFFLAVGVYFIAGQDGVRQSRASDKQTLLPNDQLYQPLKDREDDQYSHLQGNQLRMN

B1: 124E3D6 (antibody, V domains shown)
VH: QVQLQQPGTELVKPGASVKLSCKASGYTFTSYWMHWVKQRPGQGLEWIGNINPSNGDTNYNEKFKSKATLTVDKSSSTAYMQLSSLTSEDSAVYYCARDRSSQYYFDYWGQGTTLTVSS
VL: DIVMSQSPSSLAVSAGEKVTMSCKSSQSLLNSRTRKNYLAWYQQKPGQSPKLLIYWASTRESGVPDRFTGSGSGTDFTLTISSVQAEDLAVYYCKQSYNLRTFGGGTKLEIK
notes: mouse monoclonal (hybridoma) antibody
- FACS MFI (cynomolgus CD3): 400 MFI
- FACS MFI (human CD3 [1]): 126 MFI

B2: 127E2D3 (antibody, V domains shown)
VH: QVQLQQPGTELVKPGASVKLSCKASGYTFTSYWMHWVKQRPGEGLEWIGNIYPGSSSINYNEKFKSKATLTVDKSSSTAYMQLSSLTSEDSAVYYCARDRSSQYYFDYWGQGTTLTVSS
VL: DIVMSQSPSSLAVSAGEKVTMSCKSSQSLLNSRTRKNYLAWYQQKPGQSPKLLIYWASTRESGVPDRFTGSGSGTDFTLTISSVQAEDLAVYYCTQSYNLRTFGGGTKLEIK
notes: as for B1
- FACS MFI (cynomolgus CD3): 1920 MFI
- FACS MFI (human CD3 [1]): 930 MFI

B3: 140D2B10 (antibody, V domains shown)
VH: QVQLQQPGTELVKPGASVKLSCKASGYTFTSYWMHWVKQRPGQGLEWIGNINPSNGESNYNEKFKSKATLTVDKSSSTAYMQLSSLTSEDYAVYYCARDRSSQYYFDYWGQGTTLTVSS
VL: DIVMSQSPSSLAVSAGEKVTMSCKSSQSLLNSRTRKNYLAWYQQKPGQSPKLLIYWASTRESGVPDRFTGSGSGTDFTLTISSVQAEDLAVYYCKQSYTLRTFGGGTKLEIK
notes: as for B1
- FACS MFI (cynomolgus CD3): 2040 MFI
- FACS MFI (human CD3 [1]): 872 MFI

B4: 133B4C7 (antibody, V domains shown)
VH: QVQLQQPGTELVKPGASVKLSCKASGYTFTSYWMHWVKQRPGQGLEWIGNINPSNGDTNFNEKFKSKATLTVDKSSSTAYMQLSSLTSEDSAVYYCARDRSSQYYFDYWGQGTTLTVSS
VL: DIVMSQSPSSLAVSAGEKVTMSCNSSQSLLNSRTRKNYLAWYQQKPGQSPKLLIYWASTRESGVPDRFTGSGSGTDFTLTISSVQAEDLAVYYCKQSYTLRTFGGGTKLEIK
notes: as for B1
- FACS MFI (cynomolgus CD3): 1780 MFI
- FACS MFI (human CD3 [1]): 681 MFI

B5: 147C6F3 (antibody, V domains shown)
VH: QVQLQQPGTELVKPGASVKLSCKASGYTFDSYWMHWVKQRPGQGLEWIGNLNPSNGEINYNEKFKHKATLTVDKSSSTAYMQLSSLTSEDSAVYYCSRDRSSQYYFDYWGQGTTLTVSS
VL: DIVMSQSPSSLAVSAGEKVTLSCKSSQSLLNSRTRKNYLAWYQQKSGQSPKLLMYWASTRESGVPDRFTGSGSGTDFTLTITNVQAEDLAVYYCKQSYILRTFGGGTKLEIK
notes: as for B1
- FACS MFI (cynomolgus CD3): 2230 MFI
- FACS MFI (human CD3 [1]): 1860 MFI

B6: 147E11E2 (antibody, V domains shown)
VH: QVQLQQPGTELVKPGTSVKLSCKASGYTFTSYWMHWVKQRPGQGLEWIGNINPSNGATNYNEKFKSKATLTVDKSSSTAYMQLSSLTSEDSAVYYCARDRSSQYYFDYWGQGTTLTVSS
VL: DIVMSQSPSSLAVSAGEKVTMSCKSSQSLLNSRSRKNYLAWYQQKPGQSPKLLIYWASTRESGVPDRFTGSGSGTDFTLTISSVQAEDLAVYYCTQSYTLRTFGGGTKLEIK
notes: as for B1
- FACS MFI (cynomolgus CD3): 2530 MFI
- FACS MFI (human CD3 [1]): 2450 MFI

B7: 126A11A4 (antibody, V domains shown)
VH: QVQLQQPGTELVKPGASVKLSCKASGYTFTSYWMHWVKQRPEQGLEWIGNINPSNGDTNYNEKFKSKATLTVDKASNTAYMQLSSLTSEDSAVYYCGRDRSSQYYFDYWGQGTTLTVSS
VL: DIVMSQSPSSLAVSAGEKVTMSCKSSQSLLNSRTRKNYLAWYQQKPGQSPKLLIYWASTRESGVPDRFTGSGSGTDFTLTISSVQAEDLAVYFCKQSFILRTFGGGTKLEIK
notes: as for B1
- FACS MFI (cynomolgus CD3): 2220 MFI
- FACS MFI (human CD3 [1]): 1620 MFI

B8: ch8-B12-F9-B11 (antibody, V domains shown)
VH: EVQLVESGGGIVKPGGSRKLSCAASGFTFSDYGMHWVRQAPEKGLEWIAYISSASGKIYYADTVKGRFTISRDNAKNILFLQMTSLRSEDTAMYYCARVLRWSVNYVMDYWGQGTSVTVSS
VL: DIVMTQSPSSLAVSAGEKVTMNCESSQSVLYSSNQKNYLAWYQQKPGQSPKLLIYWASTRESGVPDRFTGTGSGTDFTLTISSVQAEDLAVYYCHQYLSSWTFGGGTKLEIK
- EC50 (human CD3 [2]): 18 nM
- Top FACS signal (human CD3 [2]): 2720
- EC50 (activation of Jurkat-NFAT-Luc cells) (human CD3 [3]): 11.3 nM
- Top FACS signal (activation of Jurkat-NFAT-Luc cells) (human CD3 [3]): 457

B9: ch40-C12-C10-E9 (antibody, V domains shown)
VH: EVQLQLSGPELVKPGASVKMSCKASGYTFSSYVIHWVKQKPGQGLEWIGYINPYNDVIKYNEKFKGKATLTSDKSSSTAYMELSSLTSEDSAVYYCARDSYYSYDGFAYWGQGTLVTVSA
VL: QIVLTQSPAIMSASPGEKVTMTCSASSSVSYMHWYQQKSGTSPKRWIYDTSKLASGVPARFSGSGSGTSYSLTISSMEAEDAATYYCQQWSSNPPTFGGGTKVEIK
- EC50_Fold change (Jurkat-NFAT-luciferase activation, normalized to ch40-C12-C10-E9) (human CD3 [4]): 1 fold
- Top signal_Fold change (Jurkat-NFAT-luciferase activation, normalized to ch40-C12-C10-E9) (human CD3 [4]): 1 fold
- EC50_Fold change (Jurkat-NFAT-luciferase activation, normalized to ch40-C12-C10-E9) (human CD3 [5]): 1 fold
- Top FACS signal_Fold change (Jurkat-NFAT-luciferase activation, normalized to ch40-C12-C10-E9) (human CD3 [5]): 1 fold
- EC50 (human CD3 [2]): 1.01 nM
- Top FACS signal (human CD3 [2]): 2540
- EC50 (human CD3 [6]): 0.45 nM
- Top FACS signal (human CD3 [6]): 1620
- EC50 (activation of Jurkat-NFAT-Luc cells) (human CD3 [3]): 24.2 nM
- Top FACS signal (activation of Jurkat-NFAT-Luc cells) (human CD3 [3]): 810
- EC50 (human CD3 [7]): 0.41 nM
- Top FACS signal (human CD3 [7]): 2940
